Experiments:
mouse FcRn [1] = biological target: T1, mouse FcRn (mouse, UniProt Q61559 22-297; P01887 21-119)
T1 sequence (looked up) 1: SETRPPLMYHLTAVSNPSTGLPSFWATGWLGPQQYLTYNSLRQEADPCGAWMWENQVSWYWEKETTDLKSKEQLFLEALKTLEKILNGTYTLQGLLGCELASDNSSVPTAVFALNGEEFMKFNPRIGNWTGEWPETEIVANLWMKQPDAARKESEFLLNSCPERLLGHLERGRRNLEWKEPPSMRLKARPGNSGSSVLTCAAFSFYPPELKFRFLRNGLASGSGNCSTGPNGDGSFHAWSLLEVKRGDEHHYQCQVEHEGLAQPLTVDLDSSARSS
T1 sequence (looked up) 2: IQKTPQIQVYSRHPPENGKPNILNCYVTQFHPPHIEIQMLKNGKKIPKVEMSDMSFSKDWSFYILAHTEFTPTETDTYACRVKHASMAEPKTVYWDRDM

mouse FcRn [2] = biological target: T1, mouse FcRn; experiment: pH 5.6

B1: mouse surrogate Multabody (HD37, mouse ferritin), LALAP Fc (other, not shown: a dimerising Fc or GST; large carriers; small tags and cut ends)
chain 1: KPCPPCKCPAPNAAGGPSVFIFPPKIKDVLMISLSPIVTCVVVDVSEDDPDVQISWFVNNVEVHTAQTQTHREDYNSTLRVVSALPIQHQDWMSGKEFKCKVNNKDLGAPIERTISKPKGSVRAPQVYVLPPPEEEMTKKQVTLTCMVTDFMPEDIYVEWTNNGKTELNYKNTEPVLDSDGSYFMYSKLRVEKKNWVERNSYSCSVVHEGLHNHHTTKSFSRTPGKGGSSGSGSGSTGTSSSGTGTSAGTTGTSASTSGSGSGGGGGSGGGGSAGGTATAGASSGSGSSGSSSSGGTGKPCPPCKCPAPNAAGGPSVFIFPPKIKDVLMISLSPIVTCVVVDVSEDDPDVQISWFVNNVEVHTAQTQTHREDYNSTLRVVSALPIQHQDWMSGKEFKCKVNNKDLGAPIERTISKPKGSVRAPQVYVLPPPEEEMTKKQVTLTCMVTDFMPEDIYVEWTNNGKTELNYKNTEPVLDSDGSYFMYSKLRVEKKNWVERNSYSCSVVHEGLHNHHTTKSFSRTPGKSRASTASSASSGGGGGGSGGSGGSGGSMTSQIRQNYSTEVEAAVNRLVNLHLRASYTYLSLGFFFDRDDVALEGVGHFFRELAEEKREGAERLLEFQNDRGGRALFQDVQKPSQDEWGKTQEAMEAALAMEKNLNQALLDLHALGSARTDPHLCDFLESHYLDKEVKLIKKMGNHLTNLRRVAGPQPAQTGAPQGSLGEYLFERLTLKHD
chain 2: MTSQIRQNYSTEVEAAVNRLVNLHLRASYTYLSLGFFFDRDDVALEGVGHFFRELAEEKREGAERLLEFQNDRGGRALFQDVQKPSQDEWGKTQEAMEAALAMEKNLNQALLDLHALGSARTDPHLCDFLESHYLDKEVKLIKKMGNHLTNLRRVAGPQPAQTGAPQGSLGEYLFERLTLKHD
notes: also called mLALAP MB; Fc-modified MB (LALAP mutation)
B1 gave a kon (mouse FcRn [1]) of 2.4e+06 M⁻¹ s⁻¹, a Kd (mouse FcRn [2]) of under 1 pM and a koff (mouse FcRn [2]) of under 1e-07 s⁻¹.
